We go through two molecules from patent US9376486 (NATIONAL UNIVERSITY OF SINGAPORE, dated 2016).

The target of experiment [1] is T1, Dengue virus serotype 1 strain PVP 159 (DENV1/SG/07K3640DK1/2008) E protein, on whole virus (Dengue virus serotype 1, UniProt P27909 281-676).
T1 construct: also called DENV1 E protein

The target of experiment [2] is T2, Dengue virus serotype 2 (DENV2) E protein, on whole virus (Dengue virus serotype 2, UniProt P29990 281-775).
T2 construct: mature; also called Dengue serotype 2
In words: sandwich ELISA on live whole virus.

Experiment [3] deals with T3, Dengue virus serotype 4 (DENV4) E protein, on whole virus (Dengue virus serotype 4, UniProt P09866 280-774).
T3 construct: mature; also called Dengue serotype 4
In words: sandwich ELISA on live whole virus. On the technique in general: ELISA stands for enzyme-linked immunosorbent assay.

Experiment [4] concerns the target T4, Dengue virus serotype 3 (DENV3) E protein, on whole virus (Dengue virus serotype 3, UniProt P27915 281-773).
T4 construct: mature; also called Dengue serotype 3
The experiment is described as follows: sandwich ELISA on live whole virus.

B1: Fab HM14c10 (Fab, V domains shown)
VH: EVQLVESGGGVVQPGRSLRLSCAASGFSFSSYGMHWVRQAPGKGLEWVAVIWYDGSKTYYGDSVKGRFTISKDNSKKMVNLQMDSLGVEDTAFYYCARGIAGGWAFWGIDLWGQGTLVTVSS
VL: DVVMTQSPGTLSLSPGERATLSCRASQNVYSYLGWYQHKPGRSPRLLIFGVTSRATGVPDRFSGSGSGTDFTLTISRLEPEDFAVYYCQQYAGSAYTFGQGTKVEIKR
notes: also called HM14c10Fab; Fab 14c10
For B1, in experiment [1], the binding result is listed as “binds”.

B2: HM14c10 (recombinant human IgG1 antibody 14c10, clone 8) (antibody, V domains shown)
VH: B1 VH
VL: B1 VL
notes: also called 14c10.8; recombinant IgG1 14c10 antibody
As for B2, the binding result in experiment [2], in experiment [3] and in experiment [4] was “no binding” in each case.
